9 molecules from US20240368301A1 (HANGZHOU JIUYUAN GENE ENGINEERING, published 2024) can be followed below.

Assay [1] addresses T1, SIRPα V1-his (ACRO, Cat #SIA-H5225) (human, UniProt P78324 31-370).
T1 construct: not shown: His tag
Briefly: SPR (Biacore), antibody captured by anti-Fc on CM5, 50 nM SIRPα V1-his injected, 1:1 model. As for the experimental part: Using the Biacore analysis system, activators were prepared by mixing 400 mM EDC and 100 mM NHS and activated with a CM5 sensor chip at a flow rate of 10 μL/min for 420 s. Anti-Fc antibody at 30 μg/mL dissolved in 10 mM NaAc (pH 4.5) was injected into the channel at a flow rate of 10 μL/min and then closed with 1 M ethanolamine-HCl at a flow rate of 10 μL/min for 420 s. […] All experimental data were fitted using a 1:1 binding model.
(Surface plasmon resonance follows binding to a sensor surface in real time, without labels.)

In assay [2] the target is T2, SIRPα-V1 on 293T-SIRPα-V1 cells (human, UniProt P78324 31-504).
T2 construct: Stably transfected cell line
T2 sequence (P78324 31-504): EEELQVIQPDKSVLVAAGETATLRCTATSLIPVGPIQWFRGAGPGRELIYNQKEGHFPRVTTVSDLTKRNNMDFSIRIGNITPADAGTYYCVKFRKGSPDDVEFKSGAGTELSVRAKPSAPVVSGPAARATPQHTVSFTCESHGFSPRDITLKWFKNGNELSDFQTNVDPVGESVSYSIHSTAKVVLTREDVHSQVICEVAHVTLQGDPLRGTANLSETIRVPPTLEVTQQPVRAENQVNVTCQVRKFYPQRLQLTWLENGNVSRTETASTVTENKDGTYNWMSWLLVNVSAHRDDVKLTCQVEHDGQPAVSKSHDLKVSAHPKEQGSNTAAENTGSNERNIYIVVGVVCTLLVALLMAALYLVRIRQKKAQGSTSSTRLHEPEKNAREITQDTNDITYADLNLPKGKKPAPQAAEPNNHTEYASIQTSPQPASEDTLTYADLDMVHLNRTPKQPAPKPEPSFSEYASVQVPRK
In words: FACS titration on 293T-SIRPα-V1 cells, goat anti-hIgG-AF488 (panel SIRPα-V1). On the procedure: After washing, cells were stained by 0.2 μg of goat anti-hIgG-AF488 at 4° C. for 30 min, resuspended in […] of DPBS/1% FBS, and analyzed by FlowJo V10 and GraphPad Prism6 software.

In assay [3] the target is T2, SIRPα-V1 on 293T-SIRPα-V1 cells. In words: competition FACS: 293T-SIRPα-V1 cells, antibody titrated against CD47-FITC, % of blocking (panel SIRPα-V1-CD47). As for the experimental part: After washing, cells were analyzed by utilizing FlowJo V10 and GraphPad Prism6 software.
Assay [4] has as its target T1, SIRPα V1-his (ACRO, Cat #SIA-H5225). Briefly: ELISA: coated SIRPα-V1-his, antibody titrated, goat anti-hIgG Fc HRP (panel SIRPα-V1). On the procedure: 100 μL of 1 μg/mL of SIRPα-V1-his, SIRPα-V2-his and SIRPα-V8-his (Sino Biological, Cat #30015-H08H) were coated overnight at 4° C. in Maxisorp ELISA 96-well plates. […] After washing, 100 μL of 1:5000 dilution of goat Anti-hIgG Fc HRP (Invitrogen, Cat #A18823) was added to each well and incubated for 1 h. TMB substrate was used for color development and enzyme marker readings.

Assay [5] has the same target. In words: competition ELISA: coated SIRPα-V1-his, antibody titrated against biotin-CD47, streptavidin-HRP (panel SIRPα-V1-CD47). On the procedure: 100 μL of 1 μg/mL of recombinant SIRPα-V1-his and SIRPα-V2-his were coated overnight at 4° C. in Maxisorp ELISA 96-well plates. […] After washing, each well was added with 0.2 μg Streptavidin-HRP, substrate TMB, and read by an enzyme marker.

Assay [6] has the same target. In words: BLI (ForteBio Octet RED 96): SIRPα V1-his on Ni-NTA biosensor, antibody in a 1:2 series of 7 concentrations (row SIRPα-V1). On the procedure:
5 μg/mL SIRPα V1-his and SIRPα V2-his was loaded to a Ni-NTA biosensor for 600 s, respectively. […] The binding time was 200 s and the dissociation time was 600 s. The data were fitted to calculate the affinity.
(In general: In BLI a coated tip is dipped into the sample, and binding shifts an interference pattern.)

Usually Kd stands for the free concentration of one partner at which half of the binding sites on the other are occupied at equilibrium, for simple one-to-one binding. Read a low Kd as a tighter complex. In general, koff refers to a measure of how fast the partners let go of each other. A high value points to a short-lived complex. Broadly, the kon is a measure of how fast the partners come together. As a reminder, the EC50 (read off the curve) is the concentration needed to bring the measured effect to its halfway point.

Some results are limits rather than exact numbers.

T1 sequence (P78324 31-370 limits assumed): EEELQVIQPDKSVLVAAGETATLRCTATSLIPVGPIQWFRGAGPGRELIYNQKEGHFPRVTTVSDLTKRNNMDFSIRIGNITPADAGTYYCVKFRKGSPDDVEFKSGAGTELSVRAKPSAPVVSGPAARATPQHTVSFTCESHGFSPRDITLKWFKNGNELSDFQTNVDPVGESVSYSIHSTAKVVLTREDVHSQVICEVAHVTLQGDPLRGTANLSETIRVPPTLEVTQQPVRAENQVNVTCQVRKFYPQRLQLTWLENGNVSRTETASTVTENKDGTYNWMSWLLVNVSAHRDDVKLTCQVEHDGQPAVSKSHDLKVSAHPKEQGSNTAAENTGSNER

B1: Z6 (antibody, IgG1, V domains shown)
VH: QVQLQESGPGLVKPSQTLSLTCTVSGFSLTGYGVNWIRQPPGKGLEWIGIIWGDGSTDYNSALKSRVTISKDTSKNQVFLKLSSVTAADTAVYYCARAGKMDYWGQGTTVTVSS
VL: DIVLTQSPASLAVSPGQRATITCRASESVDSYGNSFMHWYQQKPGQPPKPLIYLASNLESGVPARFSGSGSRTDFTLTINPVEANDAANYYCQQNNEYPWTFGGGTKVEIK
notes: also called humanized variant Z6
In assay [1], B1 displayed a Kd of 2.34 nM, a koff of 0.00165 s⁻¹ and a kon of 708000 M⁻¹ s⁻¹.

B2: Z3 (antibody, IgG1, V domains shown)
VH: QVQLQESGPGLVKPSQTLSLTCTVSGFSLTGYGVNWIRQPPGKGLEWIGIIWGDGSTDYNSALKSRVTISVDTSKNQVFLKLSSVTAADTAVYYCARAGKMDYWGQGTTVTVSS
VL: DIVLTQSPASLAVSPGQRATITCRASESVDSYGNSFMHWYQQKPGQPPKPLIYLASNLESGVPARFSGSGSRTDFTLTINPVEANDAANYYCQQNNEYPWTFGGGTKVEIK
notes: also called humanized variant Z3
In assay [1], B2 came in with a dissociation constant Kd of 4.17 nM, an off-rate (koff) of 0.00292 s⁻¹ and an association rate constant (kon) of 699000 M⁻¹ s⁻¹.

B3: Z8 (antibody, IgG1, V domains shown)
VH: QVQLQESGPGLVKPSQTLSLTCTVSGFSLTGYGVNWIRQPPGKGLEWIGIIWGDGSTDYNSALKSRVTISKDTSKNQVFLKLSSVTADDTARYYCARAGKMDYWGQGTTVTVSS
VL: DIVLTQSPASLAVSPGQRATITCRASESVDSYGNSFMHWYQQKPGQPPKLLIYLASNLESGVPARFSGSGSRTDFTLTINPVEANDAANYYCQQNNEYPWTFGGGTKVEIK
notes: also called humanized variant Z8
In assay [1], B3 showed a Kd of 25.3 nM, a koff of 0.0194 s⁻¹ and a kon of 768000 M⁻¹ s⁻¹.

B4: Z5 (antibody, IgG1, V domains shown)
VH: QVQLQESGPGLVKPSQTLSLTCTVSGFSLTGYGVNWIRQPPGKGLEWIGIIWGDGSTDYNSALKSRVTISKDTSKNQVFLKLSSVTAADTAVYYCARAGKMDYWGQGTTVTVSS
VL: DIVLTQSPASLAVSPGQRATITCRASESVDSYGNSFMHWYQQKPGQPPKLLIYLASNLESGVPARFSGSGSRTDFTLTINPVEANDAANYYCQQNNEYPWTFGGGTKVEIK
notes: also called humanized variant Z5
Turning to B4, in assay [1], the Kd is 27.8 nM, the koff is 0.0208 s⁻¹ and the kon came to 747000 M⁻¹ s⁻¹.

B5: Z4 (antibody, IgG1, V domains shown)
VH: QVQLQESGPGLVKPSQTLSLTCTVSGFSLTGYGVNWIRQPPGKGLEWIGIIWGDGSTDYNSALKSRVTISKDTSKNQVFLKLSSVTAADTAVYYCARAGKMDYWGQGTTVTVSS
VL: DIVLTQSPASLAVSPGQRATITCRASESVDSYGNSFMHWYQQKPGQPPKPLIYLASNLESGVPARFSGSGSGTDFTLTINPVEANDAANYYCQQNNEYPWTFGGGTKVEIK
notes: also called humanized variant Z4
In the case of B5, in assay [1], binding was characterised by a dissociation constant (Kd) of 1.98 nM, the koff was determined as 0.00154 s⁻¹ and the kon is 775000 M⁻¹ s⁻¹.

B6: Z9 (antibody, IgG1, V domains shown)
VH: QVQLQESGPGLVKPSQTLSLTCTVSGFSLTGYGVNWIRQPPGKGLEWIGIIWGDGSTDYNSALKSRVTISKDTSKNQVFLKLSSVTADDTARYYCARAGKMDYWGQGTTVTVSS
VL: DIVLTQSPASLAVSPGQRATITCRASESVDSYGNSFMHWYQQKPGQPPKPLIYLASNLESGVPARFSGSGSRTDFTLTINPVEANDAANYYCQQNNEYPWTFGGGTKVEIK
notes: also called humanized variant Z9
In assay [1], B6 showed a Kd of 2.27 nM, a koff of 0.0016 s⁻¹ and an association rate constant (kon) of 708000 M⁻¹ s⁻¹.

B7: Z7 (antibody, IgG1, V domains shown)
VH: QVQLQESGPGLVKPSQTLSLTCTVSGFSLTGYGVNWIRQPPGKGLEWIGIIWGDGSTDYNSALKSRVTISKDTSKNQVFLKLSSVTADDTARYYCARAGKMDYWGQGTTVTVSS
VL: DIVLTQSPASLAVSPGQRATITCRASESVDSYGNSFMHWYQQKPGQPPKPLIYLASNLESGVPARFSGSGSGTDFTLTINPVEANDAANYYCQQNNEYPWTFGGGTKVEIK
notes: also called humanized variant Z7
Consider B7, for which, in assay [1], the dissociation constant (Kd) came to 2.01 nM, the off-rate (koff) is 0.00151 s⁻¹ and the kon stood at 754000 M⁻¹ s⁻¹.

B8: Z1 (antibody, IgG1, V domains shown)
VH: QVQLQESGPGLVKPSQTLSLTCTVSGFSLTGYGVNWIRQPPGKGLEWIGIIWGDGSTDYNSALKSRVTISVDTSKNQVFLKLSSVTAADTAVYYCARAGKMDYWGQGTTVTVSS
VL: DIVLTQSPASLAVSPGQRATITCRASESVDSYGNSFMHWYQQKPGQPPKPLIYLASNLESGVPARFSGSGSGTDFTLTINPVEANDAANYYCQQNNEYPWTFGGGTKVEIK
notes: also called humanized variant Z1
In assay [1], B8 showed a Kd of 3.61 nM, a koff of 0.00269 s⁻¹ and a kon of 744000 M⁻¹ s⁻¹.

B9: BI 765063 (antibody, V domains shown)
VH: EVQLVQSGAEVKKPGESLRISCKASGYSFTSYWVHWVRQMPGKGLEWMGNIDPSDSDTHYSPSFQGHVTLSVDKSISTAYLQLSSLKASDTAMYYCVRGGTGTLAYFAYWGQGTLVTVSS
VL: DVVMTQSPLSLPVTLGQPASISCRSSQSLVHSYGNTYLYWFQQRPGQSPRLLIYRVSNRFSGVPDRFSGSGSGTDFTLKISRVEAEDVGVYYCFQGTHVPYTFGGGTKVEIKR
B9: the “EC50 (read off the curve)” value is approximately 1 nM in assay [2] and approximately 0.05 nM in assay [4]. Besides, the entries for the “IC50 (read off the curve)” value in assay [3] and in assay [5] were approximately 0.3 nM and approximately 4 nM, respectively. In addition, in assay [6], the Kd is less than 0.001 nM. The molecule also returned a koff in assay [6] of less than 1e-07 s⁻¹.
